Data set [1] addresses wild-type Cre recombinase (P1 Bacteriophage) (UniProt P06956). As to the kind of experiment: cell-based or functional assay.
The target in data set [2] is Cre-B2 (P1 Bacteriophage) (UniProt P06956). As to the kind of experiment: cell-based or functional assay.
Data set [3] addresses Cre-B1 (P1 Bacteriophage) (UniProt P06956). Kind of data set: cell-based or functional assay.

As to “wild-type Cre recombinase (from UniProt P06956 1-343) (enzyme)”, in data set [1], the RFP positive cells of 7000 sorted, Ai14 mouse ES reporter cells, promoter hbb + cmv, replicate 1 came out at 3910 cells; the RFP positive cells of 7000 sorted, Ai14 mouse ES reporter cells, promoter hbb + cmv, replicate 2 is 4220 cells; the RFP positive cells of 7000 sorted, Ai14 mouse ES reporter cells, promoter hbb + cmv, replicate 3 is 4310 cells; the RFP positive cells of 7000 sorted, Ai14 mouse ES reporter cells, promoter hbb + sp1, replicate 1 is 3820 cells. In data set [1], the RFP positive cells of 7000 sorted, Ai14 mouse ES reporter cells, promoter hbb + sp1, replicate 2 worked out at 3800 cells; the RFP positive cells of 7000 sorted, Ai14 mouse ES reporter cells, promoter hbb + sp1, replicate 3 came to 4020 cells; the RFP positive cells of 7000 sorted, Ai14 mouse ES reporter cells, promoter hbb, replicate 1 stood at 372 cells; the RFP positive cells of 7000 sorted, Ai14 mouse ES reporter cells, promoter hbb, replicate 2 is 391 cells. In data set [1], the RFP positive cells of 7000 sorted, Ai14 mouse ES reporter cells, promoter hbb, replicate 3 was 408 cells.

B1: Cre mutant with only the round 2 mutation E308R (protein)
chain: MSNLLTVHQNLPALPVDATSDEVRKNLMDMFRDRQAFSEHTWKMLLSVCRSWAAWCKLNNRKWFPAEPEDVRDYLLYLQARGLAVKTIQQHLGQLNMLHRRSGLPRPSDSNAVSLVMRRIRKENVDAGERAKQALAFERTDFDQVRSLMENSDRCQDIRNLAFLGIAYNTLLRIAEIARIRVKDISRTDGGRMLIHIGRTKTLVSTAGVEKALSLGVTKLVERWISVSGVADDPNNYLFCRVRKNGVAAPSATSQLSTRALEGIFEATHRLIYGAKDDSGQRYLAWSGHSARVGAARDMARAGVSIPRIMQAGGWTNVNIVMNYIRNLDSETGAMVRLLEDGD
For B1, the “recombinase activity in vitro” value is recorded as “The salt-bridge swap from round 2 alone yields two Cre mutants with reduced but clear activity (data not shown)”.

B2: Cre-B2 (protein)
chain: MSNLLTVHQNLPALPVDATSDEVRKNLMDMFRDRQAFSEHTWKMLLSVCRSWAAWCKLNNRKWFPAEPDDVKDYLEYLQARGLAVKTIQQHLGQLNMLHRRSGLPRPSDSNAVSLVMRRIRKENVDAGERAKQALAFERTDFDQVRSLMENSDRCQDIRNLAFLGIAYNTLLRIAEIARIRVKDISRTDGGRMLIHIGRTKTLVSTAGVEKALSLGVTKLVERWISVSGVADDPNNYLFCRVRKNGVAAPSATSQLSTRALEGIFEATHRLIYGAKDDSGQRYLAWSGHSARVGAARDMARAGVSIPRIMQAGGWTNVNIVMNYIRNLDSETGAMVRLLEDGD
Consider B2, for which the “recombinase activity in vitro (loxP excision, gel)” value was “All Cre-B mutants are inactive in isolation”. In addition, in data set [2], the RFP positive cells of 7000 sorted, Ai14 mouse ES reporter cells, promoter hbb + cmv, replicate 1 was 2 cells; the RFP positive cells of 7000 sorted, Ai14 mouse ES reporter cells, promoter hbb + cmv, replicate 2 is 2 cells; the RFP positive cells of 7000 sorted, Ai14 mouse ES reporter cells, promoter hbb + cmv, replicate 3 worked out at 4 cells; the RFP positive cells of 7000 sorted, Ai14 mouse ES reporter cells, promoter hbb + sp1, replicate 1 was determined as 2 cells. Moreover, in data set [2], the RFP positive cells of 7000 sorted, Ai14 mouse ES reporter cells, promoter hbb + sp1, replicate 2 is 1 cells; the RFP positive cells of 7000 sorted, Ai14 mouse ES reporter cells, promoter hbb + sp1, replicate 3 turned out to be 3 cells; the RFP positive cells of 7000 sorted, Ai14 mouse ES reporter cells, promoter hbb, replicate 1 was determined as 0 cells; the RFP positive cells of 7000 sorted, Ai14 mouse ES reporter cells, promoter hbb, replicate 2 was 0 cells. Further, in data set [2], the RFP positive cells of 7000 sorted, Ai14 mouse ES reporter cells, promoter hbb, replicate 3 is 1 cells.

B3: Cre-B1 (protein)
chain: MSNLLTVHQNLPALPVDATSDEVRKNLMDMFRDRQAFSEHTWKMLLSVCRSWAAWCKLNNRKWFPAEPDDVKDYLEYLQARGLAVKTIQQHLGQLNMLHRRSGLPRPSDSNAVSLVMRRIRKENVDAGERAKQALAFERTDFDQVRSLMENSDRCQDIRNLAFLGIAYNTLLRIAEIARIRVKDISRTDGGRMLIHIGRTKTLVSTAGVEKALSLGVTKLVERWISVSGVADDPNNYLFCRVRKNGVAAPSATSQLSTRALEGIFEATHRLIYGAKDDSGQRYLAWSGHSARVGAARDMARAGVSIPEIMQAGGWTNVNIVMNYIRNLDSETGAMVRLLEDGD
Take B3: the “recombinase activity in vitro (loxP excision, gel)” value is “All Cre-B mutants are inactive in isolation”. In data set [3], the RFP positive cells of 7000 sorted, Ai14 mouse ES reporter cells, promoter hbb + cmv, replicate 1 is 1240 cells; the RFP positive cells of 7000 sorted, Ai14 mouse ES reporter cells, promoter hbb + cmv, replicate 2 was found to be 1260 cells; the RFP positive cells of 7000 sorted, Ai14 mouse ES reporter cells, promoter hbb + cmv, replicate 3 worked out at 1120 cells; the RFP positive cells of 7000 sorted, Ai14 mouse ES reporter cells, promoter hbb + sp1, replicate 1 was 1150 cells. Further, in data set [3], the RFP positive cells of 7000 sorted, Ai14 mouse ES reporter cells, promoter hbb + sp1, replicate 2 came out at 1080 cells; the RFP positive cells of 7000 sorted, Ai14 mouse ES reporter cells, promoter hbb + sp1, replicate 3 is 1200 cells; the RFP positive cells of 7000 sorted, Ai14 mouse ES reporter cells, promoter hbb, replicate 1 was determined as 97 cells; the RFP positive cells of 7000 sorted, Ai14 mouse ES reporter cells, promoter hbb, replicate 2 came to 102 cells. The molecule further returned an RFP positive cells of 7000 sorted, Ai14 mouse ES reporter cells, promoter hbb, replicate 3 in data set [3] of 85 cells.

B4: Cre mutant with only the round 2 mutation R337E (protein)
chain: MSNLLTVHQNLPALPVDATSDEVRKNLMDMFRDRQAFSEHTWKMLLSVCRSWAAWCKLNNRKWFPAEPEDVRDYLLYLQARGLAVKTIQQHLGQLNMLHRRSGLPRPSDSNAVSLVMRRIRKENVDAGERAKQALAFERTDFDQVRSLMENSDRCQDIRNLAFLGIAYNTLLRIAEIARIRVKDISRTDGGRMLIHIGRTKTLVSTAGVEKALSLGVTKLVERWISVSGVADDPNNYLFCRVRKNGVAAPSATSQLSTRALEGIFEATHRLIYGAKDDSGQRYLAWSGHSARVGAARDMARAGVSIPEIMQAGGWTNVNIVMNYIRNLDSETGAMVELLEDGD
Take B4: the “recombinase activity in vitro” value is “The salt-bridge swap from round 2 alone yields two Cre mutants with reduced but clear activity (data not shown)”.

Values taken from patent US20170058297A1.
